Earlier results on 1 substance are cited in paper PMC2846645.

pKd: −log10 of the molar value. Where two headings read alike, the source gives them in different places.

Common to all, as to assay: surface plasmon resonance
A general note: In SPR one partner is held on a chip, and binding of the other changes the refractive index at the surface.

Series [1] concerns the target GABAA receptor gamma2 subunit Y365/Y367 motif (UniProt P18507).
Series [2] deals with GABAA receptor beta3 subunit 400-412 (UniProt P28472).
Series [3] shares this target. The source holds these as a separate data set.

Turning to AP2 mu2 (from UniProt Q96CW1), the pKd – broadly, −log10 of the Kd, conventionally taken in molar units – in series [1] is 7.40; in series [2], 6.52; in series [3], 5.72.
